± gives the uncertainty stated by the source.
B1: Lysine-specific demethylase 2B, residues 656 to 722; numbered along this chain, Q8NHM5 (parent)
chain: LPHTAVCLVCGEAGKEDTVEEEEGKFNLMLMECSICNEIIHPGCLKIKESEGVVNDELPNCWECPKC

Variants of: B1
Assay: abundance fitness (aPCA) (normalised: wild type 0, dead -1); higher = more abundant; growth selection in yeast, the domain comes from the species named
Conditions: Homo sapiens

Row | Variant | abundance fitness
1 | LPHTAVCLVCGEAGKEDTVEEEKGKFNLMLMECSICNEIIHPGCLKIKESEGVVNDELPNCWECPKC | 0.157 ± 0.14
2 | LPHTAVCLVCGEAGKEDTVEEEEGKFKLMLMECSICNEIIHPGCLKIKESEGVVNDELPNCWECPKC | 0.064 ± 0.083
3 | LPHTAVCLVCGEAGKEDTVEEWEGKFNLMLMECSICNEIIHPGCLKIKESEGVVNDELPNCWECPKC | -0.308 ± 0.12
4 | LPHTAVCLVCGENGKEDTVEEEEGKFNLMLMECSICNEIIHPGCLKIKESEGVVNDELPNCWECPKC | -0.618 ± 0.23
5 | LPHTAVCLVCGEEGKEDTVEEEEGKFNLMLMECSICNEIIHPGCLKIKESEGVVNDELPNCWECPKC | 0.214 ± 0.097
6 | LPHTAVCLVCGEANKEDTVEEEEGKFNLMLMECSICNEIIHPGCLKIKESEGVVNDELPNCWECPKC | -0.003 ± 0.096
7 | LPHTAVCLVCGEAIKEDTVEEEEGKFNLMLMECSICNEIIHPGCLKIKESEGVVNDELPNCWECPKC | -0.418 ± 0.2
8 | LPHTAVCLVCGEAGKEDTVEEEEGGFNLMLMECSICNEIIHPGCLKIKESEGVVNDELPNCWECPKC | -0.33 ± 0.099
9 | LPHTAVCLVCGEAGKEDTSEEEEGKFNLMLMECSICNEIIHPGCLKIKESEGVVNDELPNCWECPKC | -0.151 ± 0.13
10 | LPHTAVCLVCGEAGKEDTVEEEEGKFNLMLMECSWCNEIIHPGCLKIKESEGVVNDELPNCWECPKC | -0.643 ± 0.12
11 | LTHTAVCLVCGEAGKEDTVEEEEGKFNLMLMECSICNEIIHPGCLKIKESEGVVNDELPNCWECPKC | 0.844 ± 0.1
12 | LEHTAVCLVCGEAGKEDTVEEEEGKFNLMLMECSICNEIIHPGCLKIKESEGVVNDELPNCWECPKC | 0.854 ± 0.14
13 | LPHTAVCLVCGEAGKEDTVEEEEGKFNLMLMECSICNEIIHRGCLKIKESEGVVNDELPNCWECPKC | -0.134 ± 0.063
14 | LPHTAVCLVCGEAGKEDTVEEEEGKFNLMLMFCSICNEIIHPGCLKIKESEGVVNDELPNCWECPKC | -0.205 ± 0.12
15 | LPHTAVCLVCGEAGKEDTVEEEEGKFNLMLMCCSICNEIIHPGCLKIKESEGVVNDELPNCWECPKC | 0.088 ± 0.099
16 | LPHTAVCLVCGEAGKEDTVEEEEGKMNLMLMECSICNEIIHPGCLKIKESEGVVNDELPNCWECPKC | 0.062 ± 0.1
17 | LPHTAVCLVCGEAGKEDTVEEEEGKQNLMLMECSICNEIIHPGCLKIKESEGVVNDELPNCWECPKC | -0.37 ± 0.14
18 | LPHTAVCLVCGEAGKEDTVEEEEGKFNLMLMECSICNEIIHPGCLKIKEDEGVVNDELPNCWECPKC | 0.085 ± 0.11
19 | LPHTAVCLVCGEAGKEDTVEEEEGKFNLMLMECSICNEIIHPGCLKIKESEGVKNDELPNCWECPKC | -0.125 ± 0.1
20 | LPHTAVCLVCGEAGKEDTVEEEEGKFNLMLMECSICNEIIHPGCLKIKPSEGVVNDELPNCWECPKC | 0.024 ± 0.094

Row | Variant | abundance fitness
21 | LPHTAVCLVCGEAGKEDTVEEEEGKFNLMLMECSICNEIIHPGCLKIKESEGVVSDELPNCWECPKC | 0.087 ± 0.1
22 | LPHTAVCLVCGEAGKEDTVEEEEGKFNLMLMECSICNEIIHPGCLKIKESEGVVYDELPNCWECPKC | -0.386 ± 0.44
23 | LPHTAVCLVCGEAGKEDTVEEEEGKFNLMLMECSICNERIHPGCLKIKESEGVVNDELPNCWECPKC | 0.138 ± 0.065
24 | LPHTAVCLVCGEAGKEDTVEEEEGKFNLMLMECSICNEIIHPGCLKIKESEWVVNDELPNCWECPKC | -0.365 ± 0.2
25 | LPHTAVCLVCGEAGKEDTVEEEEGKFNLMLMECSICNEIIHPGCLKIKESEGVVNDMLPNCWECPKC | -0.079 ± 0.14
26 | LPHTAKCLVCGEAGKEDTVEEEEGKFNLMLMECSICNEIIHPGCLKIKESEGVVNDELPNCWECPKC | 0.194 ± 0.1
27 | LPHTAICLVCGEAGKEDTVEEEEGKFNLMLMECSICNEIIHPGCLKIKESEGVVNDELPNCWECPKC | 0.145 ± 0.088
28 | LPHTAVCLVCGEAGKEDTVEEEEGKFNLMLMECSICNEIIHPGCLKIKESEGVVNDELPNCWECPKL | -1.03 ± 0.32
29 | LPHTAVCLVCGEAGKEDTVEEEEGKFNLMLMECSICNEIIHPGSLKIKESEGVVNDELPNCWECPKC | -0.843 ± 0.14
30 | LPHTAVCLVCGEAGKEDTVEEEEGKFNLMLMECSICNEIIHPGLLKIKESEGVVNDELPNCWECPKC | -0.956 ± 0.16
31 | LPHTAVCLVCGEAGKEDTVEEEEGKFNLMLMECSICNEIIHPGCLKIKESEGVVNDELPNCWTCPKC | 0.102 ± 0.075
32 | LPHTAVCLVCGEAGKEDTVEEEEGKFNLMLMECSICNEIIHPGCLKIKESEGVVNDECPNCWECPKC | 0.066 ± 0.15
33 | LPHTAVCLVCGEAGKEDTVEEEEGKFNLPLMECSICNEIIHPGCLKIKESEGVVNDELPNCWECPKC | -0.267 ± 0.12
34 | LPHDAVCLVCGEAGKEDTVEEEEGKFNLMLMECSICNEIIHPGCLKIKESEGVVNDELPNCWECPKC | -0.2 ± 0.21
35 | LPHTAVCLVCGEAGKEDTVEEEEGKFNLMLMECSICNEIIHPGCLKIKESEGVVNFELPNCWECPKC | 0.023 ± 0.23
36 | LPHTAVCLVCGEAGKEDTVEEEEMKFNLMLMECSICNEIIHPGCLKIKESEGVVNDELPNCWECPKC | 0.375 ± 0.1
37 | LPHTAVCLVCGEAGKEDTVEEEEGKFNLMLMECSICNNIIHPGCLKIKESEGVVNDELPNCWECPKC | -0.402 ± 0.16
38 | LPHTAVCSVCGEAGKEDTVEEEEGKFNLMLMECSICNEIIHPGCLKIKESEGVVNDELPNCWECPKC | -0.34 ± 0.17
39 | LPHTAVCLVCGEAGKEDWVEEEEGKFNLMLMECSICNEIIHPGCLKIKESEGVVNDELPNCWECPKC | -0.331 ± 0.12
40 | LPHTAVCLLCGEAGKEDTVEEEEGKFNLMLMECSICNEIIHPGCLKIKESEGVVNDELPNCWECPKC | -0.126 ± 0.083

From the Human Domainome abundance scans (Beltran et al. 2025)
